# Assay results as given in patent publication US20160145328A1 (published 2016).
# Where two headings read alike, the source gives them in different places.
# B1: DP47 VH A50D (other, name in Kabat numbering)
# VH: QVQLLESGGGLVQPGGSLRLSCAASGFTFSSYAMSWVRQAPGKGLEWVSDISGSGGSTYYADSVKGRFTISRDNSKNTLYLQMNSLRAEDTAVYYCAKSYGAFDYWGQGTLVTVSS
# B2: DP47 VH G54D (other, name in Kabat numbering)
# VH: QVQLLESGGGLVQPGGSLRLSCAASGFTFSSYAMSWVRQAPGKGLEWVSAISGSDGSTYYADSVKGRFTISRDNSKNTLYLQMNSLRAEDTAVYYCAKSYGAFDYWGQGTLVTVSS
# B3: DP47 VH S31D (other, name in Kabat numbering)
# VH: QVQLLESGGGLVQPGGSLRLSCAASGFTFSDYAMSWVRQAPGKGLEWVSAISGSGGSTYYADSVKGRFTISRDNSKNTLYLQMNSLRAEDTAVYYCAKSYGAFDYWGQGTLVTVSS
# B4: DP47 VH S52D (other, name in Kabat numbering)
# VH: QVQLLESGGGLVQPGGSLRLSCAASGFTFSSYAMSWVRQAPGKGLEWVSAIDGSGGSTYYADSVKGRFTISRDNSKNTLYLQMNSLRAEDTAVYYCAKSYGAFDYWGQGTLVTVSS
# B5: DP47 VH S53D (other, name in Kabat numbering)
# VH: QVQLLESGGGLVQPGGSLRLSCAASGFTFSSYAMSWVRQAPGKGLEWVSAISGDGGSTYYADSVKGRFTISRDNSKNTLYLQMNSLRAEDTAVYYCAKSYGAFDYWGQGTLVTVSS
# B6: DP47 VH Y32E (other, name in Kabat numbering)
# VH: QVQLLESGGGLVQPGGSLRLSCAASGFTFSSEAMSWVRQAPGKGLEWVSAISGSGGSTYYADSVKGRFTISRDNSKNTLYLQMNSLRAEDTAVYYCAKSYGAFDYWGQGTLVTVSS
# Tests used:
# Experiment in all cases: Heat/Cool phage ELISA: phage-displayed VH, 80 C 10 min then 4 C 10 min, captured on coated protein A; signal as % of untreated sample
# protein A [1] = molecular target: T1, protein A (UniProt P38507 37-477)
# T1 construct: also called Protein A superantigen
# Procedure: (§1) The aggregation-resistance of clones was analyzed by measuring retention of signal after heat incubation in a phage ELISA format (McCafferty et al., 1990; Jespers et al., 2004). Wells of a Nunc Maxisorp Immuno-plate were coated overnight with protein A at a concentration of about 5 μg/ml in phosphate-buffered saline (PBS). The plate was washed once with PBS and blocked with about 4% (w/v) milk powder diluted in PBS (MPBS). Single colonies were picked from agar plates and grown overnight in 2×TY medium (containing about 16 g/L tryptone; about 10 g/L yeast extract; about 5 g/L NaCl, pH 7.0) supplemented with about 15 μg/ml tetracycline shaking at about 30° C. Cells were removed by centrifugation and phages were biotinylated directly in the culture supernatant by adding biotin-PEO₄-N-hydroxysuccinimide (Pierce; about 50 μM final concentration). For heat selection, supernatant was first incubated at about 80° C. for about 10 min and then at about 4° C. for about 10 min. Supernatant was added to the blocked ELISA wells. After three washes with PBS, bound phage particles were detected using an Extravidin-HRP conjugate (Sigma) and 3,3′,5,5′-tetramethylbenzidine (TMB) substrate. Absorbance was calculated by subtracting measurements at 450 and 650 nm.
# To identify residues in CDR2 that confer aggregation-resistance on a VH containing protein aspartic acid (D) was substituted for surface-exposed residues within the putative CDR2 of DP47 VH with aspartic acid (positions 50, 52, 52a, 53, 54).
# protein A [2] = molecular target: T1, protein A; remark: listed apart in the source
# Procedure: as §1
# Single amino acid changes in the CDR1 region of the DP47 VH domain, and combinations thereof, were constructed and tested for aggregation-resistance, as detailed above (see the Materials and Methods section). […] Correctly folded VH were captured by protein A ELISA and the absorbance signal of the treated sample was calculated as a percentage of the untreated sample.
# protein A [3] = molecular target: T1, protein A; remark: listed apart in the source
# Procedure: as §1
# To identify additional residues in CDR1 that confer aggregation-resistance on VH, surface-exposed residues of DP47 between positions 26 to 35 (numbering according to the Kabat numbering system) were substituted for aspartic acid (D) or glutamic acid (E). Framework residues at positions 39 and 40 were also substituted for aspartic acid (D) or glutamic acid (E). […] Correctly folded VH were captured by protein A ELISA and the absorbance signal of the treated sample was calculated as a percentage of the untreated sample.
Binder,Retained binding to protein A (%) (protein A [1]),Retained binding to protein A (protein A [2]) [%],Retained binding to protein A (%) (protein A [3])
B1,2.9,,
B2,1.3,,
B3,,31,21.3
B4,3.9,,
B5,3.8,,
B6,,41,24.8
